Measured values published in article PMC9482650, “Quantitative fragmentomics allow affinity mapping of interactomes” (Nature Communications, 2022).

T1: NHERF3_1, Q5T2W1
T1 sequence (Q5T2W1 4-100, limits assumed, looked up): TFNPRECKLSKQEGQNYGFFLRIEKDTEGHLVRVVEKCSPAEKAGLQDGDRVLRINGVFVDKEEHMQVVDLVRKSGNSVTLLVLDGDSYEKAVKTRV

T2: LRRC7, Q96NW7
T2 sequence (Q96NW7 1440-1537, limits assumed, looked up): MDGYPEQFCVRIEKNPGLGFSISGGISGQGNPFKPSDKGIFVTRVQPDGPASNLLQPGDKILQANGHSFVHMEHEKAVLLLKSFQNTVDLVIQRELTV

T3: LIN7B, Q9HAP6
T3 sequence (Q9HAP6 88-185, limits assumed, looked up): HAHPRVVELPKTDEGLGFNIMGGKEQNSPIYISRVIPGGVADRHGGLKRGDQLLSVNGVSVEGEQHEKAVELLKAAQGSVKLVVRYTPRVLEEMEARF

T4: SNTG1, Q9NSN8
T4 sequence (Q9NSN8 52-150, limits assumed, looked up): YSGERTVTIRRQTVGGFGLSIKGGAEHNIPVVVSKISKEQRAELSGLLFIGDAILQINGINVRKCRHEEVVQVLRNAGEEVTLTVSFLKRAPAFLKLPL

T5: HTRA3, P83110
T5 sequence (P83110 354-453, limits assumed, looked up): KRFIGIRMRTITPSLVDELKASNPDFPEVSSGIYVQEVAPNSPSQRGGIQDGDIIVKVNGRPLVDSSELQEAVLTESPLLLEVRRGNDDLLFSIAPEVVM

T6: PCLO, Q9Y6V0
T6 sequence (Q9Y6V0 4491-4600, limits assumed, looked up): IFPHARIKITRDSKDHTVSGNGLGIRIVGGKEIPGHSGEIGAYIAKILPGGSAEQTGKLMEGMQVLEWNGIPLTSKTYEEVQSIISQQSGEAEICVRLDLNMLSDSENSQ

T7: CARD11, Q9BXL7
T7 sequence (Q9BXL7 662-765, limits assumed, looked up): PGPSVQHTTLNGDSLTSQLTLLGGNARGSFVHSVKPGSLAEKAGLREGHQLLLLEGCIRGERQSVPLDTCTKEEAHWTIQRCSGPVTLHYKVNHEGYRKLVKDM

T8: LNX2_2, Q8N448
T8 sequence (Q8N448 334-432, limits assumed, looked up): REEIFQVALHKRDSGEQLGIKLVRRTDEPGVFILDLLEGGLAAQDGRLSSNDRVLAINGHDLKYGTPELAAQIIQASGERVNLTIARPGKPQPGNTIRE

T9: NHERF3_3, Q5T2W1
T9 sequence (Q5T2W1 238-333, limits assumed, looked up): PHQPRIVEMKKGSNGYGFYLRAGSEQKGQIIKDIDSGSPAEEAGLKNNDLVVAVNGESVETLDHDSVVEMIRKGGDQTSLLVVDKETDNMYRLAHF

B1: GPR12, P47775 (peptide)
chain: AQRARSPSDV

target: T1, NHERF3_1, Q5T2W1; test: holdup assay; set-up: key: below the threshold = too weak to quantify, mostly under pKd 3.1 to 4; settings: plain residues with an end cap or a label only (N-terminal biotin on a linker: ado-ado)

pKd | Binder
below the threshold | B1

target: NHERF4_1, Q86UT5-2; test: holdup assay; set-up: key: below the threshold = too weak to quantify, mostly under pKd 3.1 to 4; settings: plain residues with an end cap or a label only (N-terminal biotin on a linker: ado-ado)
Sequence (Q86UT5 other isoform, or with tags, fused parts or gaps): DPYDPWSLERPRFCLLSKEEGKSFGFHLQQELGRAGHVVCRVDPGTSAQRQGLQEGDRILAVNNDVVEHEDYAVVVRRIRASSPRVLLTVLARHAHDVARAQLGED

pKd | Binder
below the threshold | B1

target: IL16_3, Q14005; test: holdup assay; set-up: key: below the threshold = too weak to quantify, mostly under pKd 3.1 to 4; settings: plain residues with an end cap or a label only (N-terminal biotin on a linker: ado-ado)
Sequence (Q14005 1107-1207): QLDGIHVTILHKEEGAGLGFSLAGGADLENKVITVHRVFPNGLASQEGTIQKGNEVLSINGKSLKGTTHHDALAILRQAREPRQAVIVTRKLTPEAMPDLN

pKd | Binder
below the threshold | B1

target: LDB3, O75112; test: holdup assay; set-up: key: below the threshold = too weak to quantify, mostly under pKd 3.1 to 4; settings: plain residues with an end cap or a label only (N-terminal biotin on a linker: ado-ado)
Sequence (O75112 1-94): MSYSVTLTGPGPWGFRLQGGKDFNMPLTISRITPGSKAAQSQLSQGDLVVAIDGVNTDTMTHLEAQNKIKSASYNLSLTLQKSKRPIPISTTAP

pKd | Binder
below the threshold | B1

target: T2, LRRC7, Q96NW7; test: holdup assay; set-up: key: below the threshold = too weak to quantify, mostly under pKd 3.1 to 4; settings: plain residues with an end cap or a label only (N-terminal biotin on a linker: ado-ado)

pKd | Binder
below the threshold | B1

target: T3, LIN7B, Q9HAP6; test: holdup assay; set-up: key: below the threshold = too weak to quantify, mostly under pKd 3.1 to 4; settings: plain residues with an end cap or a label only (N-terminal biotin on a linker: ado-ado)

pKd | Binder
3.75 | B1

target: LAP2, Q96RT1; test: holdup assay; set-up: key: below the threshold = too weak to quantify, mostly under pKd 3.1 to 4; settings: plain residues with an end cap or a label only (N-terminal biotin on a linker: ado-ado)
Sequence (Q96RT1 other isoform, or with tags, fused parts or gaps): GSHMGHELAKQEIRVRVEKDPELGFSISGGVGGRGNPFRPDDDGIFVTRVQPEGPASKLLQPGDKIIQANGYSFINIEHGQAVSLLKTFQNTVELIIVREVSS

pKd | Binder
3.51 | B1

target: Inadl_5, Q8NI35; test: holdup assay; set-up: key: below the threshold = too weak to quantify, mostly under pKd 3.1 to 4; settings: plain residues with an end cap or a label only (N-terminal biotin on a linker: ado-ado)
Sequence (Q8NI35 673-780): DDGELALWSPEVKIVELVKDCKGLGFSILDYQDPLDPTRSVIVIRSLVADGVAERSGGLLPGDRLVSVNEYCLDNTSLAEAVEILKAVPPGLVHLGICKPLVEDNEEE

pKd | Binder
3.85 | B1

target: T4, SNTG1, Q9NSN8; test: holdup assay; set-up: key: below the threshold = too weak to quantify, mostly under pKd 3.1 to 4; settings: plain residues with an end cap or a label only (N-terminal biotin on a linker: ado-ado)

pKd | Binder
below the threshold | B1

target: GRIP2_5, Q9C0E4; test: holdup assay; set-up: key: below the threshold = too weak to quantify, mostly under pKd 3.1 to 4; settings: plain residues with an end cap or a label only (N-terminal biotin on a linker: ado-ado)
Sequence (Q9C0E4 544-642): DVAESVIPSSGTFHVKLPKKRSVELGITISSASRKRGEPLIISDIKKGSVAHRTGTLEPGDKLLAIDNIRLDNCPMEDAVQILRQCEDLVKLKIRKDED

pKd | Binder
below the threshold | B1

target: SCRIB_3, Q14160; test: holdup assay; set-up: key: below the threshold = too weak to quantify, mostly under pKd 3.1 to 4; settings: plain residues with an end cap or a label only (N-terminal biotin on a linker: ado-ado)
Sequence (Q14160 999-1103): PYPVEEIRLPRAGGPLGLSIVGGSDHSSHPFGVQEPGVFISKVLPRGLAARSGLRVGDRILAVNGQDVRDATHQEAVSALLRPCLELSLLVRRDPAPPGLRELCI

pKd | Binder
below the threshold | B1

target: T5, HTRA3, P83110; test: holdup assay; set-up: key: below the threshold = too weak to quantify, mostly under pKd 3.1 to 4; settings: plain residues with an end cap or a label only (N-terminal biotin on a linker: ado-ado)

pKd | Binder
below the threshold | B1

target: GOPC, Q9HD26; test: holdup assay; set-up: key: below the threshold = too weak to quantify, mostly under pKd 3.1 to 4; settings: plain residues with an end cap or a label only (N-terminal biotin on a linker: ado-ado)

pKd | Binder
below the threshold | B1

target: Inadl_10, Q8NI35; test: holdup assay; set-up: key: below the threshold = too weak to quantify, mostly under pKd 3.1 to 4; settings: plain residues with an end cap or a label only (N-terminal biotin on a linker: ado-ado)
Sequence (Q8NI35 1673-1763): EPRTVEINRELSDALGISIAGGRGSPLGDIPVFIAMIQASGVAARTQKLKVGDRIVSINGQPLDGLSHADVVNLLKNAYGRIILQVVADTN

pKd | Binder
below the threshold | B1

target: GRID2IP_2, A4D2P6; test: holdup assay; set-up: key: below the threshold = too weak to quantify, mostly under pKd 3.1 to 4; settings: plain residues with an end cap or a label only (N-terminal biotin on a linker: ado-ado)
Sequence (A4D2P6 272-370): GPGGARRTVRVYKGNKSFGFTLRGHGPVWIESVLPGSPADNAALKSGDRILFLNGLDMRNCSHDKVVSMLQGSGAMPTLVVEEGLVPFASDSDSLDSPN

pKd | Binder
below the threshold | B1

target: PICK1, Q9NRD5; test: holdup assay; set-up: key: below the threshold = too weak to quantify, mostly under pKd 3.1 to 4; settings: plain residues with an end cap or a label only (N-terminal biotin on a linker: ado-ado)
Sequence (Q9NRD5 17-115): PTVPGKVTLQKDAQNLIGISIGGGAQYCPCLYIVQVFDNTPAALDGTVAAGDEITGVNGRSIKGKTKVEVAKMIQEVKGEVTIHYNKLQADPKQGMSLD

pKd | Binder
3.99 | B1

target: SCRIB_2, Q14160; test: holdup assay; set-up: key: below the threshold = too weak to quantify, mostly under pKd 3.1 to 4; settings: plain residues with an end cap or a label only (N-terminal biotin on a linker: ado-ado)
Sequence (Q14160 857-960): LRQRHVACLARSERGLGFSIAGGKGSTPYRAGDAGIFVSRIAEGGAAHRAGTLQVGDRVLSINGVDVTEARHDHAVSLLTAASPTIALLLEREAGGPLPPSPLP

pKd | Binder
below the threshold | B1

target: T6, PCLO, Q9Y6V0; test: holdup assay; set-up: key: below the threshold = too weak to quantify, mostly under pKd 3.1 to 4; settings: plain residues with an end cap or a label only (N-terminal biotin on a linker: ado-ado)

pKd | Binder
below the threshold | B1

target: NHERF4_2, Q86UT5; test: holdup assay; set-up: key: below the threshold = too weak to quantify, mostly under pKd 3.1 to 4; settings: plain residues with an end cap or a label only (N-terminal biotin on a linker: ado-ado)
Sequence (Q86UT5 220-308): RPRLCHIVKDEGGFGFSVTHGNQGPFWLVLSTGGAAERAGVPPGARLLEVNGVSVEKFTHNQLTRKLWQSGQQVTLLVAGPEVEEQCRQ

pKd | Binder
below the threshold | B1

target: MAGI2_4, Q86UL8; test: holdup assay; set-up: key: below the threshold = too weak to quantify, mostly under pKd 3.1 to 4; settings: plain residues with an end cap or a label only (N-terminal biotin on a linker: ado-ado)
Sequence (Q86UL8 772-865): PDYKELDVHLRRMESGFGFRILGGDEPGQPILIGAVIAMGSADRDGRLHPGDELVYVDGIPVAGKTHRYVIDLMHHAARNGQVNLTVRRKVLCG

pKd | Binder
below the threshold | B1

target: GRIP2_7, Q9C0E4; test: holdup assay; set-up: key: below the threshold = too weak to quantify, mostly under pKd 3.1 to 4; settings: plain residues with an end cap or a label only (N-terminal biotin on a linker: ado-ado)
Sequence (Q9C0E4 934-1023): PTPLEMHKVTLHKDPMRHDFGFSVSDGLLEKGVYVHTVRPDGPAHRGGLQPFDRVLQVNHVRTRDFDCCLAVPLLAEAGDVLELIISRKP

pKd | Binder
below the threshold | B1

target: SNX27, Q96L92; test: holdup assay; set-up: key: below the threshold = too weak to quantify, mostly under pKd 3.1 to 4; settings: plain residues with an end cap or a label only (N-terminal biotin on a linker: ado-ado)

pKd | Binder
below the threshold | B1

target: T7, CARD11, Q9BXL7; test: holdup assay; set-up: key: below the threshold = too weak to quantify, mostly under pKd 3.1 to 4; settings: plain residues with an end cap or a label only (N-terminal biotin on a linker: ado-ado)

pKd | Binder
below the threshold | B1

target: DLG4_3, P78352; test: holdup assay; set-up: key: below the threshold = too weak to quantify, mostly under pKd 3.1 to 4; settings: plain residues with an end cap or a label only (N-terminal biotin on a linker: ado-ado)
Sequence (P78352 306-403): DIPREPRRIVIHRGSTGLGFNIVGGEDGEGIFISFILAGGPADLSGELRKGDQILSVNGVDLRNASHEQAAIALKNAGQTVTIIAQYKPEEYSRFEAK

pKd | Binder
below the threshold | B1

target: DLG5_1, Q8TDM6; test: holdup assay; set-up: key: below the threshold = too weak to quantify, mostly under pKd 3.1 to 4; settings: plain residues with an end cap or a label only (N-terminal biotin on a linker: ado-ado)
Sequence (Q8TDM6 617-713): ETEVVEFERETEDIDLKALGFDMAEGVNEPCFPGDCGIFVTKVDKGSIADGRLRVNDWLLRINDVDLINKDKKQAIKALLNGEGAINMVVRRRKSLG

pKd | Binder
below the threshold | B1

target: T8, LNX2_2, Q8N448; test: holdup assay; set-up: key: below the threshold = too weak to quantify, mostly under pKd 3.1 to 4; settings: plain residues with an end cap or a label only (N-terminal biotin on a linker: ado-ado)

pKd | Binder
3.57 | B1

target: T9, NHERF3_3, Q5T2W1; test: holdup assay; set-up: key: below the threshold = too weak to quantify, mostly under pKd 3.1 to 4; settings: plain residues with an end cap or a label only (N-terminal biotin on a linker: ado-ado)

pKd | Binder
below the threshold | B1

target: TJP2_1, Q9UDY2; test: holdup assay; set-up: key: below the threshold = too weak to quantify, mostly under pKd 3.1 to 4; settings: plain residues with an end cap or a label only (N-terminal biotin on a linker: ado-ado)
Sequence (Q9UDY2 24-128): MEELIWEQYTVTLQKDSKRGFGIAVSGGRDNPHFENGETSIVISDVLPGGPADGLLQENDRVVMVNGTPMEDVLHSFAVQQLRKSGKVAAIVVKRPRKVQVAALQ

pKd | Binder
below the threshold | B1
